Where two headings read alike, the source gives them in different places.
Key:
[1] = tested on: ΔrecA ΔrecB cells; test: Basal DNA content without UV; format: cell-based, Escherichia coli; conditions: expressed from pUT18C in ΔrecA ΔrecB; unchallenged; relative to ΔrecA ΔrecB cells
Experimental: (§1) IMR13 (ΔrecA) served as a positive control for RecB-mediated DNA degradation, while IMR19 (ΔrecA ΔrecB) was used as a negative control.
(§2) Overnight cultures were diluted to an OD600 of 0.01 into LB medium supplemented with appropriate antibiotics and incubated with shaking at 37°C until they reached an OD600 of 0.2. Each culture was split into two 1 ml aliquots. One aliquot was fixed immediately in ethanol (50% final concentration) to assess DNA content prior to UV exposure. The second aliquot was pelleted, resuspended in 1× PBS, and exposed to UV light at a dose of 50 J/m^2 (CL-1000 Ultraviolet crosslinker, UVP). […]
(§3) Imaging was performed on a Leica DM6000 B fluorescence microscope equipped with a 100× oil immersion objective (Leica HCX Plan Apochromat 100×, 1.40 NA, PH3 CS), a Leica EL6000 metal-halide illumination system, and a Hamamatsu C9100-14 EM-CCD camera. For each sample, six fields of view were acquired, each including both phase-contrast and fluorescence channels. Fluorescence imaging was conducted using a narrow band-pass filter set optimized for CFP (Excitation: 426–446 nm; Emission: 460–500 nm; exposure time: 30 ms). All imaging parameters—including exposure time, illumination intensity, and gain—were kept constant across all strains, treatments, and replicates to ensure quantitative comparability and minimize experimental bias. […]

[2] = molecular target: β-clamp (Escherichia coli, UniProt P0A988)
Text: Protein–protein interactions between RecB and β-clamp, as well as between RecB and RecA, were examined using the bacterial adenylate cyclase-based two-hybrid (BACTH) system (Euromedex), as previously described, with optimizations noted below. This system relies on the functional reconstitution of Bordetella pertussis adenylate cyclase (CyaA) fragments T25 and T18, which are genetically fused to the proteins of interest. Upon interaction of the fusion partners, cAMP production is restored in the cyaA-deficient E. coli BTH101 strain, activating downstream reporters such as lacZ and mal operons. Co-transformants were tested using one or several of the following readouts: (i) qualitative X-gal spot assay, (ii) quantitative β-galactosidase assay, and (iii) semi-quantitative growth in M63 minimal medium with maltose.
Recipient strains (BTH101 or derivatives) were streaked from glycerol stock onto LB agar plates containing streptomycin (100 µg/ml), isopropyl β-D-1-thiogalactopyranoside (IPTG) (0.5 mM), and 5-bromo-4-chloro-3-indolyl β-D-galactopyranoside (X-gal) (40 µg/ml) and incubated at 37°C until cya⁺ (blue) revertants became visible among the cya⁻ (white) colonies. Multiple white colonies were picked and cultured overnight in LB with streptomycin (100 µg/ml) at 37°C. These cultures were diluted 1:50 and expanded before electroporation.
Transformed cells were immediately recovered in 1 ml SOC at 37°C for 1.5 h with shaking and plated on LB agar supplemented with appropriate antibiotics (Table 4). Plates were incubated at 30°C for up to 3 days.
Following selection, 3–5 colonies from each transformation plate were pooled to inoculate 1 ml LB containing IPTG (0.5 mM) and the appropriate antibiotics. Cultures were incubated overnight at 30°C with shaking. The same overnight culture was used to seed all subsequent assays. The following day, cultures were diluted 1:100 into fresh LB (containing IPTG and antibiotics) and grown at 30°C to mid-exponential phase (OD600 around 0.5–0.6, measured by Nanodrop One, Thermo Fisher Scientific Inc.) before use in assays.
The X-gal spot assay was used to visualize protein−protein interactions via blue/white colorimetric readout. Mid-log cultures were serially diluted (10-fold series), and 5 µl of each dilution (including undiluted) was spotted onto LB agar containing IPTG (0.5 mM), X-gal (40 µg/ml), and selective antibiotics. To assess interaction stability under genotoxic stress, an identical plate was exposed to UV light (15 J/m^2). Plates were incubated at 30°C for 2–3 days, and images were captured with a smartphone camera.
β-galactosidase activity was quantified using a modified Miller assay adapted for 96-well format. Cultures at OD600 around 0.5–0.6 were measured again in a plate reader (Victor Nivo, PerkinElmer, Waltham, MA, USA) to account for instrument variability. Cells were pelleted, resuspended in PM2 buffer (70 mM Na2HPO4, 30 mM NaH2PO4, 1 mM MgSO4, 0.2 mM MnSO4, and 100 mM β-mercaptoethanol), and permeabilized with 0.01% (w/v) sodium dodecyl sulfate (SDS) and 10% (v/v) toluene for 45 min at 37°C. […] Absorbance at 405 nm was recorded, and β-galactosidase activity calculated in Miller Units using the following equation: […]
This assay exploits the cAMP dependence of the mal regulon, allowing only cya^+ cells with interacting fusion proteins to grow on maltose as sole carbon source. […] Cultures were incubated in triplicate at 30°C with shaking, and OD600 was measured at 24, 48, and 72 h using a plate reader. […]

[3] = tested on: ΔrecA ΔrecB cells; test: DNA degradation assay after UV ("reckless" DNA degradation); format: cell-based, Escherichia coli; conditions: expressed from pUT18C in ΔrecA ΔrecB; UV 50 J/m^2, 3 h; Hoechst 33258 microscopy
Experimental: as §1, §2, §3

β-clamp, sequence (P0A988 whole entry, the tested form may be a part): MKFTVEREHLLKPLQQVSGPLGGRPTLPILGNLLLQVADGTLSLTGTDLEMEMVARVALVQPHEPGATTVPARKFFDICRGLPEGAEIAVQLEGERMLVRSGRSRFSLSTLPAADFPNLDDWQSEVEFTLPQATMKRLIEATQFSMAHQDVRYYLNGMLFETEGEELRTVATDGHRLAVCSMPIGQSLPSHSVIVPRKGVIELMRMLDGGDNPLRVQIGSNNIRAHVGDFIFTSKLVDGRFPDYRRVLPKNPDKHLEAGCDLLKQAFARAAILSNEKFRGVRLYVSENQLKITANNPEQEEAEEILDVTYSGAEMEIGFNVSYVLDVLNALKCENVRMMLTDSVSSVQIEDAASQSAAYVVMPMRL

B1: RecB: wild type RecB subunit of the E. coli RecBCD complex (T18 fusion, his-tagged or HaloTag according to test) (protein)
chain: MSDVAETLDPLRLPLQGERLIEASAGTGKTFTIAALYLRLLLGLGGSAAFPRPLTVEELLVVTFTEAATAELRGRIRSNIHELRIACLRETTDNPLYERLLEEIDDKAQAAQWLLLAERQMDEAAVFTIHGFCQRMLNLNAFESGMLFEQQLIEDESLLRYQACADFWRRHCYPLPREIAQVVFETWKGPQALLRDINRYLQGEAPVIKAPPPDDETLASRHAQIVARIDTVKQQWRDAVGELDALIESSGIDRRKFNRSNQAKWIDKISAWAEEETNSYQLPESLEKFSQRFLEDRTKAGGETPRHPLFEAIDQLLAEPLSIRDLVITRALAEIRETVAREKRRRGELGFDDMLSRLDSALRSESGEVLAAAIRTRFPVAMIDEFQDTDPQQYRIFRRIWHHQPETALLLIGDPKQAIYAFRGADIFTYMKARSEVHAHYTLDTNWRSAPGMVNSVNKLFSQTDDAFMFREIPFIPVKSAGKNQALRFVFKGETQPAMKMWLMEGESCGVGDYQSTMAQVCAAQIRDWLQAGQRGEALLMNGDDARPVRASDISVLVRSRQEAAQVRDALTLLEIPSVYLSNRDSVFETLEAQEMLWLLQAVMTPERENTLRSALATSMMGLNALDIETLNNDEHAWDVVVEEFDGYRQIWRKRGVMPMLRALMSARNIAENLLATAGGERRLTDILHISELLQEAGTQLESEHALVRWLSQHILEPDSNASSQQMRLESDKHLVQIVTIHKSKGLEYPLVWLPFITNFRVQEQAFYHDRHSFEAVLDLNAAPESVDLAEAERLAEDLRLLYVALTRSVWHCSLGVAPLVRRRGDKKGDTDVHQSALGRLLQKGEPQDAAGLRTCIEALCDDDIAWQTAQTGDNQPWQVNDVSTAELNAKTLQRLPGDNWRVTSYSGLQQRGHGIAQDLMPRLDVDAAGVASVVEEPTLTPHQFPRGASPGTFLHSLFEDLDFTQPVDPNWVREKLELGGFESQWEPVLTEWITAVLQAPLNETGVSLSQLSARNKQVEMEFYLPISEPLIASQLDTLIRQFDPLSAGCPPLEFMQVRGMLKGFIDLVFRHEGRYYLLDYKSNWLGEDSSAYTQQAMAAAMQAHRYDLQYQLYTLALHRYLRHRIADYDYEHHFGGVIYLFLRGVDKEHPQQGIYTTRPNAGLIALMDEMFAGMTLEEA
modifications: left off: T18 (Bordetella pertussis CyaA fragment), N-terminal, kept
- basal degradation [1]: ~50%
- interaction strength relative to RecB–RecC positive control [2]: comparable to the RecB–RecC positive control interaction
- interaction with β-clamp, β-galactosidase activity [2]: abolished
- interaction with β-clamp, β-galactosidase activity ([2]; BTH101 wild-type and ΔrecB backgrounds, 24 h, relative to empty vector negative control): distinct interaction
- interaction with β-clamp, β-galactosidase activity ([2]; BTH101 ΔrecA): initially appeared absent
- interaction with β-clamp, M63/maltose growth ([2]; BTH101 ΔrecA, M63/maltose variant, longer incubation): the interaction was apparent also in the ΔrecA strain
- reckless DNA degradation after UV [3]: restored the reckless degradation phenotype, comparable to that of the ΔrecA strain
